Data as given in US20250066503A1, “CELL INJURY INDUCING THERAPEUTIC DRUG FOR USE IN CANCER THERAPY” (CHUGAI SEIYAKU KABUSHIKI KAISHA, priority 2016, published 2025).
Positions count from the first letter of the chain named. Names and notes keep the numbering of the source. Values joined by “and” are separate entries in the source; they are usually repeats but may differ in a detail not shown here. Equal values may be shown once.

B1: H0610-G1dh/none-Hi-Kn010G3/L0015-k0 (antibody, V domains shown)
VH: QVQLVQSGAEVKKPGASVKVSCKASGYTFTDYEMHWIRQPPGQGLEWIGAIDGKTPDTAYSQKFKGRVTLTADKSTSTAYMELSSLTSEDTAVYYCTRFYSYTYWGQGTLVTVSS
VL: DIVMTQSPLSLPVTPGEPASISCRSSQSPVHSNRNTYLHWYQQKPGQAPRLLIYKVSNRFSGVPDRFSGSGSGTDFTLKISRVEAEDVGVYYCGQGTQVPYTFGQGTKLEIK
notes: one-arm
B2: GCH054-G1dh/none-Hi-Kn010G3/L0200-k0 (antibody, V domains shown)
VH: B1 VH with K19T, Q43E, K54E, Q62E
VL: B1 VL with S25P
notes: one-arm
B3: GCH054-G1dh/none-Hi-Kn010G3/L0215-k0 (antibody, V domains shown)
VH: B1 VH with K19T, Q43E, K54E, Q62E
VL: B1 VL with S28P, L38I
notes: one-arm
B4: GCH054-G1dh/none-Hi-Kn010G3/L0246-k0 (antibody, V domains shown)
VH: B1 VH with K19T, Q43E, K54E, Q62E
VL: B1 VL with L38I, H39Q, G94S
notes: one-arm
B5: GCH054-G1dh/none-Hi-Kn010G3/L0249-k0 (antibody, V domains shown)
VH: B1 VH with K19T, Q43E, K54E, Q62E
VL: B1 VL with S25P, L38I, H39Q, G94S
notes: one-arm
B6: TR01H040-E22Hh/none-Hi-Kn010G3/TR01L007-k0 (antibody, V domains shown)
VH: QVQLVESGGGLVQPGRSLRLSCAASGFTFSNAWMHWVRQAPGKGLEWVAQIKDKSQNYATYYAESVKGRFTISRADSKNSIYLQMNSLKTEDTAVYYCRYVHYSASYGVDAWGQGTTVTVSS
VL: B1 VL with R24Q, S25A, Q27E, P29L, Q42L, A48S, R50Q
notes: one-arm
B7: rCE115H-E22Hh/none-Hi-Kn010G3/L0000vk1-k0 (antibody, human IgG1, L234A L235A, N297A, V domains shown)
VH: EVQLVETGGSLVQPGKSLKLTCATSGFTFSNAWMHWVRQSPEKQLEWVAQIKAKSNNYATYYAESVKGRFTISRDDSKSNIYLQMNSLKEEDTAVYYCRYVHYGAYYGVDAWGQGTSVTVSS
VL: DIQMTQSPSSLSASVGDRVTITCRSSQSLVHSNRNTYLHWYQQKPGKAPKLLIYKVSNRFSGVPSRFSGSGSGTDFTFTISSLQPEDIATYYCGQGTQVPYTFGQGTKVEIK
notes: one-arm
B8: GPC3_ERY22_CE115 (rCE115H-E22Hh/rCE115L-k0/GL4-E22Hk/H0000-E22L) (bispecific antibody, human IgG1, kappa, L234A L235A, N297A)
heavy: EVQLVETGGSLVQPGKSLKLTCATSGFTFSNAWMHWVRQSPEKQLEWVAQIKAKSNNYATYYAESVKGRFTISRDDSKSNIYLQMNSLKEEDTAVYYCRYVHYGAYYGVDAWGQGTSVTVSSASTKGPSVFPLAPSSKSTSGGTAALGCLVKDYFPEPVTVSWNSGALTSGVHTFPAVLQSSGLYSLSSVVTVPSSSLGTQTYICNVNHKPSNTKVDKKVEPKSCDKTHTCPPCPAPEAAGGPSVFLFPPKPKDTLMISRTPEVTCVVVDVSHEDPEVKFNWYVDGVEVHNAKTKPREEQYASTYRVVSVLTVLHQDWLNGKEYKCKVSNKALPAPIEKTISKAKGQPREPQVYTLPPSRCELTKNQVSLSCAVKGFYPSDIAVEWESNGQPENNYKTTPPVLDSDGSFFLVSKLTVDKSRWQQGNVFSCSVMHEALHNHYTQKSLSLSPDYKDDDDK
light: DVVMTQTPVSMSVSLGGQVSISCRSSQSLVHNNGNTYVSWYIQKPSQSPQLLIYKVSNRFSGISDRFSGSGSGTDFTLKISRVEPDDLGVYYCGQGTQDPYTFGAGTKLELKRTVAAPSVFIFPPSDEQLKSGTASVVCLLNNFYPREAKVQWKVDNALQSGNSQESVTEQDSKDSTYSLSSTLTLSKADYEKHKVYACEVTHQGLSSPVTKSFNRGEC
chain 1: DIVMTQSPLSLPVTPGEPASISCRSSQSLVHSNRNTYLHWYQQKPGQAPRLLIYKVSNRFSGVPDRFSGSGSGTDFTLKISRVEAEDVGVYYCSQNTHVPPTFGQGTKLEIKSSASTKGPSVFPLAPSSKSTSGGTAALGCLVKDYFPEPVTVSWNSGALTSGVHTFPAVLQSSGLYSLSSVVTVPSSSLGTQTYICNVNHKPSNTKVDKKVEPKSCDKTHTCPPCPAPEAAGGPSVFLFPPKPKDTLMISRTPEVTCVVVDVSHEDPEVKFNWYVDGVEVHNAKTKPREEQYASTYRVVSVLTVLHQDWLNGKEYKCKVSNKALPAPIEKTISKAKGQPREPQVCTLPPSRDELTKNQVSLWCLVKGFYPSDIAVEWESNGQPENNYKTTPPVLDSDGSFFLYSKLTVDKSRWQQGNVFSCSVMHEALHNHYTQKSLSLSPHHHHHHHH
chain 2: QVQLVQSGAEVKKPGASVKVSCKASGYTFTDYEMHWIRQPPGQGLEWIGAIDPKTGDTAYSQKFKGRVTLTADKSTSTAYMELSSLTSEDTAVYYCTRFYSYTYWGQGTLVTVSSASVAAPSVFIFPPSDEQLKSGTASVVCLLNNFYPREAKVQWKVDNALQSGNSQESVTEQDSKDSTYSLSSTLTLSKADYEKHKVYACEVTHQGLSSPVTKSFNRGEC
notes: ERY22 format
B9: TR01H082-E22Hh/none-Hi-Kn010G3/TR01L020-k0 (antibody, V domains shown)
VH: B6 VH with A75D, I81L, S104A, S106G
VL: B1 VL with R24Q, S25A, Q27E, L38I, H39Q, Q42L, A48S, R50Q, G94Y
notes: one-arm
B10: TR01H040-E22Hh/none-Hi-Kn010G3/TR01L019-k0 (antibody, V domains shown)
VH: B6 VH
VL: B1 VL with R24Q, S25A, Q27E, Q42L, A48S, R50Q, G94Y
notes: one-arm
B11: rCE115H-E22Hh/none-Hi-Kn010G3/rCE115L-k0 (antibody, human IgG1, kappa, L234A L235A, N297A, V domains shown)
VH: B7 VH
VL: DVVMTQTPVSMSVSLGGQVSISCRSSQSLVHNNGNTYVSWYIQKPSQSPQLLIYKVSNRFSGISDRFSGSGSGTDFTLKISRVEPDDLGVYYCGQGTQDPYTFGAGTKLELKR
notes: one-arm; also called rCE115H-E22Hh//-Hi-Kn010G3/rCE115L-k0
B12: TR01H084-E2702GsKsc/none-Hi-E2704sE/L0011-k0 (antibody, human IgG4 S228P, kappa, N297A, V domains shown)
VH: B6 VH with L11V, R16G, S104A, S106G, A111I
VL: DIVMTQSPLSLPVTPGEPASISCRSSQPLVHSNRNTYLHWYQQKPGQAPRLLIYKVSNRFSGVPDRFSGSGSGTDFTLKISRVEAEDVGVYYCGQGTQVPYTFGQGTKLEIKR
notes: one-arm
B13: TR01H082-E2702GsKsc/none-Hi-E2704sE/L0011-k0 (antibody, human IgG4 S228P, kappa, N297A, V domains shown)
VH: B6 VH with A75D, I81L, S104A, S106G
VL: B12 VL
notes: one-arm
B14: TR01H109-E2702GsKsc/none-Hi-E2704sE/L0011-k0 (antibody, human IgG4 S228P, kappa, N297A, V domains shown)
VH: B6 VH with Y62V, A75D, I81L, S104A, S106G
VL: B12 VL
notes: one-arm
B15: TR01H113-E2702GsKsc/none-Hi-E2704sE/L0011-k0 (antibody, human IgG4 S228P, kappa, N297A, V domains shown)
VH: B6 VH with L11V, R16G, Y62V, S104A, S106G, A111I
VL: B12 VL
notes: one-arm
B16: TR01H077-E22Hh/none-Hi-Kn010G3/L0200-k0 (antibody, V domains shown)
VH: QVQLVESGGGLVQPGRSLRLSCAASGFTFSNAWMHWVRQAPGKGLEWVAQIKDKSNNYATYYAESVKGRFTISRADSKNSIYLQMNSLKTEDTAVYYCRYVHYAAAEMVRDDIWGQGTTVTVSS
VL: B1 VL with S25P
notes: one-arm
B17: TR01H067-E22Hh/none-Hi-Kn010G3/TR01L019-k0 (antibody, V domains shown)
VH: B6 VH with A75D, I81L, S104A
VL: B1 VL with R24Q, S25A, Q27E, Q42L, A48S, R50Q, G94Y
notes: one-arm

Tests used:
[1] = target: T1, human GPC3 (human, UniProt P51654 25-563); test: SPR
T1 construct: range 25-563; soluble analyte; also called soluble human GPC3; glypican 3

[2] = target: T2, soluble human CD3 epsilon chain (human, UniProt P07766 23-126); test: SPR
T2 construct: also called CD3ε
T2 sequence (P07766 23-126 limits assumed): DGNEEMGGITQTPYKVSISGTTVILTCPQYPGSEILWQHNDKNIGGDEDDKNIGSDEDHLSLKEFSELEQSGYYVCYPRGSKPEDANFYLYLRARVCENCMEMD

T1 sequence (P51654 25-563 limits assumed): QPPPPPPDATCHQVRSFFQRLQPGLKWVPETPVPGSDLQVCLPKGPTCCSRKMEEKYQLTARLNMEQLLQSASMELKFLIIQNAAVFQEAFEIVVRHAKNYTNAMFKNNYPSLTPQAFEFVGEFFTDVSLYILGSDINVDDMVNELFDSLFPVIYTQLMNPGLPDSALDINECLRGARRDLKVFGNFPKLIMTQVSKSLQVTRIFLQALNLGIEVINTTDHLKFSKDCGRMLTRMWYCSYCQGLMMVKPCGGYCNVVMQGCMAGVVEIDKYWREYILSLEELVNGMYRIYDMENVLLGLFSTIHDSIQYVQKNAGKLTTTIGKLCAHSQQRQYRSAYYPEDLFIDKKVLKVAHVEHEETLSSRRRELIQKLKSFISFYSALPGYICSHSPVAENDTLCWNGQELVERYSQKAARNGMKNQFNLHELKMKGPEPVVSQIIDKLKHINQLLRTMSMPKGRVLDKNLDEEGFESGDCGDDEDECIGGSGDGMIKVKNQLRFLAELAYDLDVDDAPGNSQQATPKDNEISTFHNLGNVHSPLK

| Kd [1] | Kd [2] | Binder |
| --- | --- | --- |
| 1.31 nM | – | B1 |
| 1.18 nM | – | B2 |
| 1.62 nM | – | B3 |
| 0.0315 nM | – | B4 |
| 0.00361 nM | – | B5 |
| – | 68.2 nM | B6 |
| – | 85.2 nM | B7 |
| – | 93.7 nM | B8 |
| – | 106 nM | B9 |
| – | 3.2 nM | B10 |
| – | 124 nM and 138 nM | B11 |
| – | 4.14 nM | B12 |
| – | 10.1 nM | B13 |
| – | 16.4 nM | B14 |
| – | 5.14 nM | B15 |
| – | 6.12 nM | B16 |
| – | 12.1 nM | B17 |
